Data set [1] concerns the molecule itself. Nature of the data set: negative stain EM; FLAG-tagged proteins overexpressed in HEK293T, purified with anti-FLAG M2 agarose beads and concentrated; filaments looked for.
Data set [2] concerns the molecule itself. In words: cryo-EM structure; helical reconstruction of core RIP2–CARD–EM filaments, 4.1 Å (FSC = 0.143), Relion 2.0.
Data set [3] concerns the molecule itself. In words: SEC; size-exclusion profiles of the purified NOD1/RIP2 and NOD2/RIP2 fusion proteins.
Data set [4] deals with the molecule itself. In words: induced oligomerization assay; RIP2 and NLRC4–CARD monomers each mixed with their own and with other seed complexes (Supplementary Figure 4d).
Data set [5] deals with the molecule itself. In words: negative stain EM; recombinant SNAP–RIP2–CARD seeds co-incubated with refolded monomers (about 20 μM monomer, 10:1 monomer to seed, overnight); SNAP removed with 3C protease for the core filaments; 49,000x.

B1: FLAG–RIP2-kinase-NLRC4–CARD (other, human, UniProt O43353 1-431, looked up)
chain: MNGEAICSALPTIPYHKLADLRYLSRGASGTVSSARHADWRVQVAVKHLHIHTPLLDSERKDVLREAEILHKARFSYILPILGICNEPEFLGIVTEYMPNGSLNELLHRKTEYPDVAWPLRFRILHEIALGVNYLHNMTPPLLHHDLKTQNILLDNEFHVKIADFGLSKWRMMSLSQSRSSKSAPEGGTIIYMPPENYEPGQKSRASIKHDIYSYAVITWEVLSRKQPFEDVTNPLQIMYSVSQGHRPVINEESLPYDIPHRARMISLIESGWAQNPDERPSFLKCLIELEPVLRTFEEITFLEAVIQLKKTKLQSVSSAIHLCDKKKMELSLNIPVNHGPQEESCGSSQLHENSGSPETSRSLPAPQDNDFLSRKAQDCYFMKLHHCPGNHSWDSTISGSQRAAFCDHKTTPCSSAIINPLSTAGNSERLMNFIKDNSRALIQRMGMTVIKQITDDLFVWNVLNREEVNIICCEKVEQDAARGIIHMILKKGSESCNLFLKSLKEWNYPLFQDLNGQSLFHQTSEGDLDD
notes: RIP2 (RIPK2), human, what is left of 1–540 when the CARD domain (432–540) is replaced; NLRC4 CARD, human, residues 1–100, in place of the RIP2–CARD domain; the limit 431 is worked out from the replaced stretch 432–540; also called chimeric RIP2; NLRC4–CARD swapped construct; source: HEK293T, transfected; purified from cellular extracts (EM); in total cellular extracts (sedimentation); not shown: …
With B1, the binding result in data set [1] is recorded as “binds”.

B2: RIP2–CARD–EM (domain or fragment, human)
chain: VDEALREAQTKSAQPGIAQQWIQSKREDIVNQMTEACLNQSLDALLSRDLIMKEDYELVSTKPTRTSKVRQLLDTTDIQGEEFAKVIVQKLKDNKQMGLQPYPEILVVSRS
notes: 13 extra amino acids (13aa) attached to the N-terminus of residue 432 of RIP2–CARD; RIP2 (RIPK2), human, CARD domain 432–529 (last 11 residues of 432–540 removed); also called core RIP2–CARD–EM; RIP2–CARD (432–529); source: E. coli BL21(DE3); not shown: SNAP-tag, N-terminal, cleaved
Turning to B2, in data set [2], the binding result is listed as “binds”.

B3: top-down NOD1/RIP2 fusion construct (other)
chain: QPGIAQQWIQSKERDIVNQMTEACLNQSLDALLSRDLIMKEDYELVSTKPTRTSKVRQLLDTTDIQGEEFAKVIVQKLKDNKQMGLQPYPEILVVSRSPSLNLLQNKSMMEEQGHSEMEIIPSESHPHIQLLKSNRELLVTHIRNTQCLVDNLLKNDYFSAEDAEIVCACPTQPDKVRKILDLVQSKGEEVSEFFLYLLQQLADAYVDLRPWLLEIGFS
Turning to B3, the “stoichiometry N” value in data set [3] was roughly 4.

B4: SNAP–RIP2–CARD (domain or fragment, human, UniProt O43353 432-540, looked up)
chain: QPGIAQQWIQSKREDIVNQMTEACLNQSLDALLSRDLIMKEDYELVSTKPTRTSKVRQLLDTTDIQGEEFAKVIVQKLKDNKQMGLQPYPEILVVSRSPSLNLLQNKSM
modifications: BG-Alexa Fluor 647 on monomers, BG-Alexa Fluor 488 on seeds (native gel assay)
notes: RIP2 (RIPK2), human, CARD domain residues 432–540; a 3C protease site lies between SNAP and the CARD; the methods also name a RIP2–CARD (432–540)–SNAP; also called SNAP–RIP2–CARD seeds; SNAP–RIP2–CARD monomers; source: E. coli BL21(DE3), purified (Ni-NTA, SEC): oligomeric seed fraction; not shown: SNAP-tag, N-terminal, kept
For the protein B4, the binding result in data set [4] is recorded as “binds”.

B5: core RIP2–CARD filament (SNAP removed) (domain or fragment, human, UniProt O43353 432-540, looked up)
chain: QPGIAQQWIQSKREDIVNQMTEACLNQSLDALLSRDLIMKEDYELVSTKPTRTSKVRQLLDTTDIQGEEFAKVIVQKLKDNKQMGLQPYPEILVVSRSPSLNLLQNKSM
notes: RIP2 (RIPK2), human, CARD domain residues 432–540; also called 3C-protease-digested core RIP2–CARD thin filament; source: E. coli BL21(DE3); extended SNAP–RIP2–CARD filaments digested with 3C protease, purified (Superose 6); not shown: SNAP-tag, N-terminal, cleaved
Consider B5, for which the binding result in data set [5] is on record as “binds”.

B6: top-down NOD2/RIP2 fusion construct (other)
chain: QPGIAQQWIQSKERDIVNQMTEACLNQSLDALLSRDLIMKEDYELVSTKPTRTSKVRQLLDTTDIQGEEFAKVIVQKLKDNKQMGLQPYPEILVVSRSPSLNLLQNKSMMCSQEAFQAQRSQLVELLVSGSLEGFESVLDWLLSWEVLSWEDYEGFHLLGQPLSHLARRLLDTVWNKGTWACQKLIAAAQEAQADSQSPKLHGCWDPHSLHPARDLQSHRPAIVRRLHSHVENMLDLAWERGFVSQYECDEIRLPIFTPSQRARRLLDLATVKANGLAAFLLQHVQELPVPLALPLEAATCK
In the case of B6, the “stoichiometry N” value in data set [3] is roughly 4.
